Assays:
[1] = molecular target: T1, epitope region-containing peptide fragment (AFPPEVIGPLFFFPLLYMIFQLGEG-biotin) (Homo sapiens, UniProt Q14973); test: Surface plasmon resonance assay (BIAcore) of antigen binding affinity
T1 sequence (Q14973 273-297 limits assumed): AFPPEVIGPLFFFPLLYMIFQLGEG
Description: In short, a carboxymethylated dextran biosensor chip (CM5, BIAcore Inc.) was activated by N-ethyl-N′-(3-dimethylaminopropyl)-carbodiimide hydrochloride (EDC) and N-hydroxysuccinimide (NHS) in accordance with the provider's instruction. An anti-mouse IgG antibody was diluted with 10 mM sodium acetate (pH5.2) up to 30 μg/ml. The dilution was injected at a flow rate of 5 to 10 μl/minute such that the reaction unit (RU) of the protein bound became 9,000 to 14,000 RU. In contrast, an anti-human IgG antibody was diluted with 10 mM sodium acetate (pH5.0) up to 25 μg/ml. The diluted antibody was injected at a flow rate of 5 to 10 μl/minute such that the reaction unit (RU) of the protein bound became 9,000 to 14,000 RU. After injection of each of the anti IgG antibodies, 1 M ethanolamine was injected in order to block unreactive groups. For kinetic measurement, N6HB426 antibody diluted with a running buffer (HBS-P: 10 mM HEPES pH7.5, 150 mM NaCl, 0.005% NP40) up to 10 μg/ml was immobilized onto CM5 chip via the anti-mouse IgG antibody, in advance. To the chip, a solution of an epitope region-containing peptide fragment ([…]-biotin: SEQ ID NO: 24) diluted with the running buffers at different concentrations was added at 25° C. at a flow rate of 10 μl/minute for 2 minutes. In contrast, the recombinant N6HB426 human chimeric IgG4 antibody was diluted with the running buffer up to 10 μg/ml and then was immobilized onto a sensor chip (CM5) via the anti-human IgG antibody in advance. To the chip, a solution of an epitope region-containing peptide fragment diluted with the running buffers at different concentrations was added at 25° C. at a flow rate of 10 μl/minute for 2 minutes.
The refractive index of the solution varied in correlation to the mass of a chip surface changed when a peptide fragment molecule bound to N6HB426 antibody on the sensor chip, was monitored in real-time. Using simple one-to-one Langmuir binding model (BIAcore Evaluation software version 3.1) by fitting sensor grams of antigen-antibody association and dissociation at the same time, association rate (Ka) and dissociation rate (Kd) were calculated. A Kd/Ka ratio was calculated to obtain an equilibrium dissociation constant (KD).

[2] = tested on: HBV (Genotype C or Genotype D); test: Live HBV infection of normal human hepatocytes (PXB cells), HBs antigen; conditions: FIG. 2B, listed as N6HB426-20 antibody gene-derived recombinant antibody
[3] = 25° C., antibody immobilized on CM5 chip

B1: Recombinant mouse IgG2a antibody: N6HB426 variable regions connected to a constant region of mouse IgG2a antibody (antibody)
heavy: QVQLQQSGAELVKPGASVKLSCKASDFTFTEYTIHWIKQMSGQGLEWIGWFYPGSGDIKYSEKFKDKATLTADKSSSTVYMELNRLTSEDSAVYFCARHMRDFRGFYYGRFYFDYWGQGTTLTVSSAKTTAPSVYPLAPVCGGTTGSSVTLGCLVKGYFPEPVTLTWNSGSLSSGVHTFPALLQSGLYTLSSSVTVTSNTWPSQTITCNVAHPASSTKVDKKIEPRGPTIKPCPPCKCPAPNLLGGPSVFIFPPKIKDVLMISLSPIVTCVVVDVSEDDPDVQISWFVNNVEVHTAQTQTHREDYNSTLRVVSALPIQHQDWMSGKEFKCKVNNKDLPAPIERTISKPKGSVRAPQVYVLPPPEEEMTKKQVTLTCMVTDFMPEDIYVEWTNNGKTELNYKNTEPVLDSDGSYFMYSKLRVEKKNWVERNSYSCSVVHEGLHNHHTTKSFSRTPGK
light: EIVLTQSPAIMSASPGEKVTITCRASSSVSSSYLHWYQQKSGVSPKLWIYSTSNLASGVPARFSGSGSGTSYSLTINSVEAEDAATYYCQQYSGYRWTFGGGTTLEIKRADAAPTVSIFPPSSEQLTSGGASVVCFLNNFYPKDINVKWKIDGSERQNGVLNSWTDQDSKDSTYSMSSTLTLTKDEYERHNSYTCEATHKTSTSPIVKSFNRNEC
B1 was tested, and the Kd [1] was ~0.1 nM, the “Ka (1/Ms) association rate” value [1, 3] was 761.7 M⁻¹ s⁻¹ and the “Kd (1/s) dissociation rate” value [1, 3] was 2.39e-07 s⁻¹. For the same molecule, the “inhibitory activity on infection of normal human hepatocytes with HBV” value [2] was “comparable activity”.

From patent US12497461B2, “Human NTCP-binding antibody capable of inhibiting infection of hepatitis B virus (HBV) to human hepatocytes” (priority 2019, dated 2025)
